The text below walks through data of the supplement of paper PMC9170038.

This series deals with MS2 coat protein. The series is described as follows: apparent KD of MS2 coat protein; designed switch direction (-1 OFF switch, 1 ON switch): 1; higher = weaker reporter binding. The method, boiled down:
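Normalised cluster fluorescence was curve-fitted, and each design's median over clusters is its apparent KD. Before this, SNAP-549-labelled MS2 coat protein was titrated from 0.7 or 1.5 nM, doubling to 3 µM, over RNA switches transcribed on Illumina chips by stalled E. coli RNA polymerase. Titrations had no input, 200 uM small-molecule ligand, or an oligonucleotide input, and steps lasted 0.8–1.5 h (lowest) to 10–20 min (highest).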

Where [1] appears, read: input ligand: microRNA oligo, concentration not stated.
The mark [2] stands for this setting: Eterna round: R95, input ligand: FMN 200 uM.
Where [3] appears, read: Eterna round: R95, input ligand: microRNA oligo, concentration not stated.
[4] abbreviates: Eterna round: R95, input ligand: none.

Take “CGCCCGAAUGAAGGAUAUGGUACAACACGAUGAUCAGAAGGUUAUUAAAGUGGGUGAUGCCGACAUGAGGAUCACCCAUGUUGG [Eternabot solution 40] (Eterna round: R96, puzzle: Same State NG 1)”: the “apparent KD of MS2 coat protein” value was 0.0531 µM (input ligand: FMN 200 uM), 0.06 µM under setting [1] and 0.0669 µM (input ligand: none).
On the same counts, the results for “UGACACACGGCAGGAUAUGCUUAGCAAAGCUAAGCAGAAGGGCCUCAUGUCGUGGAAAUGUGACAUGAGGAUCACCCAUGUCGC [Omei SS(NG)1 Cv5] (Eterna round: R96, puzzle: Same State NG 1)” are 0.0273 µM, 0.0178 µM and 0.0299 µM.
Turning to “UUGCGCUGUCGAGAGGAUAUGCGGUGAUGGACAUGAGGAUCACCCAUGUUAGCGAUAGCAUUACGGUAGAAGGCUCUACAGCUGC [salish99_ss2_r3_094] (puzzle: Same State 2)”, the “apparent KD of MS2 coat protein” value reads like this: under setting [2], 0.013 µM; under setting [3], 0.0215 µM; under setting [4], 0.0219 µM.
For “AAAGUACAUGAGGAUCACCCAUGUCCCAAUGAAUAAGGAUAUACGAAAAUAAAAUAAAAUGUAGAAGGUAUAAUAG [Same State 1 #1] (puzzle: Same State 1)”, the “apparent KD of MS2 coat protein” value under setting [3] is 0.0305 µM.
Turning to “UAUCGUUUGAUAGGAUAUCGCUAUACAUGAGGAUCACCCAUGUUUACCACGCUGGUUUUUCAUACCGAGAAGGAUUCUGAUGAC [salish99_SSNG02_r04_006] (Eterna round: R96, puzzle: Same State NG 2)”, the “apparent KD of MS2 coat protein” value (input ligand: FMN 200 uM) is 0.0383 µM, the “apparent KD of MS2 coat protein” value under setting [1] worked out at 0.0315 µM and the “apparent KD of MS2 coat protein” value (input ligand: none) stood at 0.0277 µM.
For “GCUGCACAUGAGGAUCACCCAUGUCUUCGGAGUCGAGGAUAUGGUCACUGUAAACAGUGGCCAGAAGGCGAGUAGC [SS1 - Son of Teenbexe v6] (puzzle: Same State 1)”, the “apparent KD of MS2 coat protein” value was determined as 0.0308 µM under setting [2], 0.0378 µM under setting [3] and 0.0323 µM under setting [4].
Take “AUUAUUAAUGCAGGAUAUGAUUAACAUGAGGAUCACCCAUGUGGUGUUGUGAGUAAGGAGAGUGAUCAGAAGGGCAUUUUUUGU [JMF's solution 16] (Eterna round: R96, puzzle: Same State NG 2)”: the “apparent KD of MS2 coat protein” value is 0.798 µM (input ligand: FMN 200 uM), 0.264 µM under setting [1] and 0.615 µM (input ligand: none).
On to “AACAAUCUAUCUGAGGAUAUCAUGAAAUAAACAUGAGGAUCACCCAUGUGUAGGAAAACUGCAUAUGAGAAGGCAGAUAGAUUGA [salish99_ss2_r3_036] (Eterna round: R96, puzzle: Same State 2)”, for which the “apparent KD of MS2 coat protein” value under setting [1] turned out to be 0.465 µM.
Still for that read-out and setting: the figure for “UGCUUCGUGUAAGGAUAUGCUGCCGUUUCGGCUGCAGAAGGUACUAUAAUACAUGAGGAUCACCCAUGUCUCUCGCUUUGCGGG [salish99_SSng1_r04_305] (Eterna round: R96, puzzle: Same State NG 1)” is 0.0421 µM.
As for “GCAUCACAUGAGGAUCACCCAUGUCUUCGGAGUCGAGGAUAUGGUCACUGUAAACAGUGGCCAGAAGGCGAGAUGC [SS1 - Son of Teenbexe] (puzzle: Same State 1)”, the “apparent KD of MS2 coat protein” value under setting [3] turned out to be 0.0414 µM.
For “GCCGCAAGGGCAGGAUAUGGGUCCAGAGUGCAAAUACACUCUGGUACAUGAGGAUCACCCAUGUCCCAGAAGGGCCCAAGCGGC [Teerledion] (Eterna round: R96, puzzle: Same State NG 2)”, the “apparent KD of MS2 coat protein” value runs as follows: (input ligand: FMN 200 uM) 0.0139 µM; under setting [1], 0.071 µM; (input ligand: none) 0.127 µM.
The matching figures for “CUGAGCGAUCAAGGAUAUCACGUCGUUUAGACGUGAGAAGGUGAUCAUAACAUGAGGAUCACCCAUGUAUUACAUGAAGCUCAG [SSNG1/2-A3] (Eterna round: R96, puzzle: Same State NG 1)”: 0.208 µM, 0.462 µM and 1.24 µM.
With “AUUAAUUAAUUAAUACAUGAGGAUCACCCAUGUAAUAAGAUCUAGGAUAUCAGCUCGUUUAGAGCUGAGAAGGAGAUCACAUGU [SSNG3/17-A3] (Eterna round: R96, puzzle: Same State NG 3)”, the “apparent KD of MS2 coat protein” value under setting [1] stood at 0.0327 µM.
On to “UUACUCAUGUAAGGAUAUGCAGCCGAAACGGCUGCAGAAGGUACUAUAAUACAUGAGGAUCACCCAUGUCAAAAUAAUUAAAAC [Mat - Same State NG 1 - JL mod - D72] (Eterna round: R96, puzzle: Same State NG 1)”, for which the “apparent KD of MS2 coat protein” value reads like this: (input ligand: FMN 200 uM) 0.0348 µM; under setting [1], 0.026 µM; (input ligand: none) 0.0269 µM.
“AUAAGUUCGAUGCUCGUCUUUCCGUACAAACAUGAGGAUCACCCAUGUGAUCGGGAAGUAGCCCGAUCAGUAUGGCC [Leceen] (puzzle: Sensor for hsa-mir-208a)”: the “apparent KD of MS2 coat protein” value runs as follows: under setting [2], 0.0306 µM; under setting [3], 0.0163 µM; under setting [4], 0.0275 µM.
The matching figures for “AACUAUCUAUCUCAGGAUAUCAUGUCAAAGACAUGAGGAUCACCCAUGUACCAGGAAACUGGUUAUGAGAAGGGAGAUAGAUAGG [Mat - Same State 2 - Mod - D42] (puzzle: Same State 2)”: 0.193 µM, 0.0648 µM and 0.0683 µM.
Consider “UUGAAGAAUUAAGGAUAUUGAGUACAUAUGUUUAACAUGAGGAUCACCCAUGUGGGUUGCGGUAUCGAGAAGGUAAAAUACUAG [Mat - same State NG 2 - JL mod - D73] (Eterna round: R96, puzzle: Same State NG 2)”, for which the “apparent KD of MS2 coat protein” value amounted to 0.156 µM (input ligand: FMN 200 uM), 0.126 µM under setting [1] and 0.0879 µM (input ligand: none).
Consider “CUGAGCAGUCAAGGAUAUCACGUCGAAUAGACGUGAGAAGGUGACCAAUACAUGAGGAUCACCCAUGUAAUACAUGAAGCUCAG [SSNG1/12-A1] (Eterna round: R96, puzzle: Same State NG 1)”, for which, under setting [1], the “apparent KD of MS2 coat protein” value turned out to be 0.026 µM.
“UUGCUCGUGUGAGGAUAUGCAGCCGUUUCGGCUGCAGAAGGUACUAUAAUACAUGAGGAUCACCCAUGUCUCUAUUAUUUAGUG [salish99_SSNG1_r04_926] (Eterna round: R96, puzzle: Same State NG 1)”: the “apparent KD of MS2 coat protein” value (input ligand: FMN 200 uM) amounted to 0.0195 µM, the “apparent KD of MS2 coat protein” value under setting [1] is 0.0192 µM and the “apparent KD of MS2 coat protein” value (input ligand: none) is 0.0287 µM.
On the same counts, the results for “CGACCAAUUGUUUAAUAAACAUGAGGAUCACCCAUGUUUCGUGAGGAUAUCUAGGGUGAAGCACGGGAGAAGGCACUACGGUCA [Eternabot solution 21] (Eterna round: R96, puzzle: Same State NG 3)” are 0.142 µM, 0.12 µM and 0.134 µM.
On to “AUAAAACAUGAGGAUCACCCAUGUCAACAAAGUCGAGGAUAUGGGCAAAUAAAAUAAGAACCAGAAGGCGAAUAAU [salish99_SS1_r3_001] (puzzle: Same State 1)”, for which the “apparent KD of MS2 coat protein” value under setting [3] stood at 0.233 µM.
Consider “AGGCUCAGCAUGCAGGAUAUAGUCGCUGCGACAUGAGGAUCACCCAUGUGGUGUGAAAGAAAGCGCUAGAAGGGUAAAGUGAGUG [Beeran] (puzzle: Same State 2)”, for which the “apparent KD of MS2 coat protein” value under setting [2] amounted to 0.244 µM, the “apparent KD of MS2 coat protein” value under setting [3] was found to be 0.467 µM and the “apparent KD of MS2 coat protein” value under setting [4] stood at 0.75 µM.
For “ACGUGGACGAAAGUCCACGAAUAAGACGAACAUGAGGAUCACCCAUGUGAGGCGAGCUUUUUGUUCGUCUUAUAAAA [Mat - Sensor - Mod - D116] (Eterna round: R96, puzzle: Sensor for hsa-mir-208a)”, the “apparent KD of MS2 coat protein” value runs as follows: (input ligand: FMN 200 uM) 0.0731 µM; under setting [1], 0.0321 µM; (input ligand: none) 0.0226 µM.
With “GAGUUACUAUCUCAGGAUAUCAUGUCAAAGACAUGAGGAUCACCCAUGUACCAGGAAACUGGUUAUGAGAAGGGAGAUAGUAACA [Mat - Same State 2 - Mod - D51] (puzzle: Same State 2)”, the “apparent KD of MS2 coat protein” value is, setting by setting: under setting [2], 0.113 µM; under setting [3], 0.0096 µM; under setting [4], 0.0144 µM.
On the same counts, the results for “CUCCCACGUGCACAGGAUAUGCCGGGAUGCACAUGAGGAUCACCCAUGUAAUCCUGAAAAUAAAAGCAGAAGGGUGAUCAUGGGU [Teestege] (puzzle: Same State 2)” are 0.0361 µM, 0.0116 µM and 0.0102 µM.
As to “ACUUGCCGCACAGGAUAUGGGUGCCUGUACAUGAGGAUCACCCAUGUUAAGGGACGGAUUACGAACCAGAAGGGUGAGGCGGGC [Tigeti] (Eterna round: R96, puzzle: Same State NG 2)”, the “apparent KD of MS2 coat protein” value reads like this: (input ligand: FMN 200 uM) 0.124 µM; under setting [1], 0.418 µM; (input ligand: none) 0.75 µM.
“ACGCAGCUGGGUGAGGAUAUCGGUGGUAAAACAUGAGGAUCACCCAUGUCCGAAGCUCGGACCUCCGAGAAGGCGCCCGGCUGCG [Soinraesar Omei Mod 1] (puzzle: Same State 2)”: the “apparent KD of MS2 coat protein” value reads like this: under setting [2], 0.00547 µM; under setting [3], 0.00525 µM; under setting [4], 0.00511 µM.
The matching figures for “AACAAUCUAUCUGAGGAUAUCAUGUAAUAAACAUGAGGAUCACCCAUGUGCAGGAAAACUGCAUAUGAGAAGGCAGAUAGAUUGA [salish99_ss2_r3_030] (puzzle: Same State 2)”: 0.182 µM, 0.134 µM and 0.18 µM.
On the same counts, the results for “GGGCCAACGAGCGAGGAUAUGGCCUCGGACACAUGAGGAUCACCCAUGUCGAAAAGGUCAGGAGGCUAGAAGGCGUAAAAUGCCA [Tiqusoor] (puzzle: Same State 2)” are 0.0117 µM, 0.0108 µM and 0.0131 µM.
